Entries after “also recorded” stand apart in the source; their conditions may differ.
Test system: LNCaP-LucPPe cells
Assay: LNCaP-LucPPE xenograft in NSG mice, with rechallenge
Type: in vivo
Settings: for tumor control (bioluminescence imaging, caliper tumor volume), LNCaP-LucPPE xenograft: 1 × 10^6 LNCaP-LucPPe s.c., 17 days later 3 × 10^6 T cells i.v., male NSG mice; for survival, LNCaP-LucPPE xenograft: mouse, in vivo

Molecule	tumor control (bioluminescence imaging, caliper tumor volume), LNCaP-LucPPE xenograft	survival, LNCaP-LucPPE xenograft
9763 (protein, Synthetic Polynucloetide) MALPVTALLLPLALLLHAARPDIQMTQSPSSLSASVGDRVTITCKASQDVGTAVDWYQQKPGKAPKLLIYWASTRHTGVPSRFSGSGSGTDFTLTISSLQPEDFATYYCQQYNSYPLTFGQGTKVEIKRLEDLKNVFPPEVAVFEPSEAEISHTQKATLVCLATGFYPDHVELSWWVNGKEVHSGVCTDPQPLKEQPALNDSRYCLSSRLRVSATFWQNPRNHFRCQVQFYGLSENDEWTQDRAKPVTQIVSAEAWGRADCGFTSESYQQGVLSATILYEILLGKATLYAVLVSALVLMAMVKRKDSRGRAKRSGSGATNFSLLKQAGDVEENPGPTSMDWIWRILFLVGAATGAHSFEEVQLVESGGGLVQPGGSLRLSCAASGYTFTEYTIHWVRQAPGKGLEWVANINPNNGGTTYNQKFEDRFTISRDNSKNTLYLQMNSLRAEDTAVYYCARGWNFDYWGQGTLVTVSSTRIQNPDPAVYQLRDSKSSDKSVCLFTDFDSQTNVSQSKDSDVYITDKCVLDMRSMDFKSNSAVAWSNKSDFACANAFNNSIIPEDTFFPSPESSCDVKLVEKSFETDTNLNFQNLSVIGFRILLLKVAGFNLLMTLRLWSS	effective control of tumor	improvement in survival
9832 (protein, Synthetic Polynucloetide) MALPVTALLLPLALLLHAARPDIQMTQSPSSLSASVGDRVTITCKASQDVGTAVDWYQQKPGKAPKLLISWASTRHTGVPSRFSGSGSGTDFTLTISSLQPEDFATYFCQQYNSYPLTFGQGTKVEIKRTVLEDLKNVFPPEVAVFEPSEAEISHTQKATLVCLATGFYPDHVELSWWVNGKEVHSGVCTDPQPLKEQPALNDSRYCLSSRLRVSATFWQNPRNHFRCQVQFYGLSENDEWTQDRAKPVTQIVSAEAWGRADCGFTSESYQQGVLSATILYEILLGKATLYAVLVSALVLMAMVKRKDSRGRAKRSGSGATNFSLLKQAGDVEENPGPTSMDWIWRILFLVGAATGAHSFEQVQLVQSGAEVKKPGESVKVSCKASGYTFTEYTIHWVRQAPGQGLEWMGNINPNNGGTTYNQKFEDRVTITADKSTSTAYMELSSLRSEDTAVYYCARGWNFDYWGQGTTVTVSSTRIQNPDPAVYQLRDSKSSDKSVCLFTDFDSQTNVSQSKDSDVYITDKCVLDMRSMDFKSNSAVAWSNKSDFACANAFNNSIIPEDTFFPSPESSCDVKLVEKSFETDTNLNFQNLSVIGFRILLLKVAGFNLLMTLRLWSS	effective control of tumor	improvement in survival
9762 (protein, Synthetic Polynucloetide) MALPVTALLLPLALLLHAARPDIQMTQSPSSLSASVGDRVTITCKASQDVGTAVDWYQQKPGKAPKLLIYWASTRHTGVPSRFSGSGSGTDFTLTISSLQPEDFATYYCQQYNSYPLTFGQGTKVEIKRLEDLKNVFPPEVAVFEPSKAEIAHTQKATLVCLATGFYPDHVELSWWVNGKEVHSGVCTDPQPLKEQPALNDSRYCLSSRLRVSATFWQNPRNHFRCQVQFYGLSENDEWTQDRAKPVTQIVSAEAWGRADCGITSASYHQGVLSATILYEILLGKATLYAVLVSALVLMAMVKRKDSRGRAKRSGSGATNFSLLKQAGDVEENPGPTSMDWIWRILFLVGAATGAHSFEEVQLVESGGGLVQPGGSLRLSCAASGYTFTEYTIHWVRQAPGKGLEWVANINPNNGGTTYNQKFEDRFTISRDNSKNTLYLQMNSLRAEDTAVYYCARGWNFDYWGQGTLVTVSSTRIQNPDPAVYQLRDSKSSDKSVCLFTDFDSQTNVSQSKDSDVYITDKCVLDMRSMDFKSNSAVAWSNKSDFACANAFNNSIIPEDTFFPSSDVPCDVKLVEKSFETDTNLNFQNLSVIGFRILLLKVAGFNLLMTLRLWSSRAKRSGSGVKQTLNFDLLKLAGDVESNPGPSRGHMTEYKPTVRLATRDDVPRAVRTLAAAFADYPATRHTVDPDRHIERVTELQELFLTRVGLDIGKVWVADDGAAVAVWTTPESVEAGAVFAEIGPRMAELSGSRLAAQQQMEGLLAPHRPKEPAWFLATVGVSPDHQGKGLGSAVVLPGVEAAERAGVPAFLETSAPRNLPFYERLGFTVTADVEVPEGPRTWCMTRKPGA	statistically significant and effective tumor control	–
9901 (protein, Synthetic Polynucloetide) MALPVTALLLPLALLLHAARPDIQMTQSPSSLSASVGDRVTITCKASQDVGTAVDWYQQKPGKAPKLLIYWASTRHTGVPSRFSGSGSGTDFTLTISSLQPEDFATYYCQQYNSYPLTFGQGTKVEIKRLEDLKNVFPPEVAVFEPSEAEISHTQKATLVCLATGFYPDHVELSWWVNGKEVHSGVCTDPQPLKEQPALNDSRYCLSSRLRVSATFWQNPRNHFRCQVQFYGLSENDEWTQDRAKPVTQIVSAEAWGRADCGFTSESYQQGVLSATILYEILLGKATLYAVLVSALVLMAMVKRKDSRGRAKRSGSGATNFSLLKQAGDVEENPGPTSMDWIWRILFLVGAATGAHSFEEVQLQQSGPELVKPGTSVRISCKTSGYTFTEYTIHWVKQSHGKSLEWIGNINPNNGGTTYNQKFEDKATLTVDKSSSTAYMELRSLTSEDSAVYYCAAGWNFDYWGQGTTLTVSSTRIQNPDPAVYQLRDSKSSDKSVCLFTDFDSQTNVSQSKDSDVYITDKCVLDMRSMDFKSNSAVAWSNKSDFACANAFNNSIIPEDTFFPSPESSCDVKLVEKSFETDTNLNFQNLSVIGFRILLLKVAGFNLLMTLRLWSS	effective control of tumor; also recorded: statistically significant and effective tumor control	improvement in survival
9694 (protein, Synthetic Polynucloetide) MALPVTALLLPLALLLHAARPDIVMTQSHKFMSTSVGDRVSIICKASQDVGTAVDWYQQKPGQSPKLLIYWASTRHTGVPDRFTGSGSGTDFTLAITNVQSEDLADYFCQQYNSYPLTFGAGTKLEIKRLEDLKNVFPPEVAVFEPSEAEISHTQKATLVCLATGFYPDHVELSWWVNGKEVHSGVCTDPQPLKEQPALNDSRYCLSSRLRVSATFWQNPRNHFRCQVQFYGLSENDEWTQDRAKPVTQIVSAEAWGRADCGFTSESYQQGVLSATILYEILLGKATLYAVLVSALVLMAMVKRKDSRGRAKRSGSGATNFSLLKQAGDVEENPGPTSMDWIWRILFLVGAATGAHSFEEVQLQQSGPELVKPGTSVRISCKTSGYTFTEYTIHWVKQSHGKSLEWIGNINPNNGGTTYNQKFEDKATLTVDKSSSTAYMELRSLTSEDSAVYYCAAGWNFDYWGQGTTLTVSSTRIQNPDPAVYQLRDSKSSDKSVCLFTDFDSQTNVSQSKDSDVYITDKCVLDMRSMDFKSNSAVAWSNKSDFACANAFNNSIIPEDTFFPSPESSCDVKLVEKSFETDTNLNFQNLSVIGFRILLLKVAGFNLLMTLRLWSS	effective control of tumor	improvement in survival

— patent US20230212319A1, “NOVEL ANTIGEN BINDING DOMAINS AND SYNTHETIC ANTIGEN RECEPTORS INCORPORATING THE SAME” (University of Southern California, priority 2020, published 2023)
